For one molecule, fold inhibition of CD248-IGFBP5 binding over the negative control antibody (Palivizumab) results are on record in patent publication EP4537907A1.

The test addresses recombinant human CD248 (internally produced) (human) (UniProt Q9HCU0). Put plainly: competition ELISA: non-purified Fab E. coli supernatant mixed 1:1 with biotinylated human CD248, added to immobilised human IGFBP5, Streptavidin-HRP. In general terms: An ELISA detects its analyte on a solid surface through an enzyme-linked reagent.

Chain of recombinant human CD248 (internally produced) (human) (Q9HCU0 18-687 limits assumed): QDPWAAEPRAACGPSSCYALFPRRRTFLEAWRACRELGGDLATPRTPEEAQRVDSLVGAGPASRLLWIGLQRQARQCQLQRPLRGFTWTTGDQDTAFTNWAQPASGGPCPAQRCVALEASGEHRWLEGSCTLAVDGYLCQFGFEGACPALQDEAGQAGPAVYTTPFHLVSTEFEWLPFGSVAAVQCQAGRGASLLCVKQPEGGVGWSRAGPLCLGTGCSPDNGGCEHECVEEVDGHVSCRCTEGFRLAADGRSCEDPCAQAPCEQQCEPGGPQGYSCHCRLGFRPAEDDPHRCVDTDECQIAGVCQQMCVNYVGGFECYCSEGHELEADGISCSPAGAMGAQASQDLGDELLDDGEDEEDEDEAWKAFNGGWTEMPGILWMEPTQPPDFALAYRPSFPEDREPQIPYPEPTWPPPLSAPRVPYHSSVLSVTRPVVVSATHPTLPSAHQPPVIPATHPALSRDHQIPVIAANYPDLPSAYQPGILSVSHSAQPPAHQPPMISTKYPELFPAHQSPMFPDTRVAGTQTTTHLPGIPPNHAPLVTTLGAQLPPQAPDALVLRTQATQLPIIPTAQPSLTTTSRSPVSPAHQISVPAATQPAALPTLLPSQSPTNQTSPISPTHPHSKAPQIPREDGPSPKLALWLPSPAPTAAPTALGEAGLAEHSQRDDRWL

B1: YU1023-A02 Fab (Fab, V domains shown)
VH: QVQLVESGPGLVKPSQTLSLTCTVSGGSISSGGYYWSWIRQHPGKGLEWIGYIYYSGSTYYNPSLKSRVTISVDTSKNQFSLKLSSVTAADTAVYYCARVRGRSATYFDYWGQGTTVTVSS
VL: QSVLTQPPSVSGAPGQRVTISCTGSSSNIGAGYDVRWYQQLPGTAPKLLIYANNNRPSGVPDRFSGSKSGTSASLAITGLQTEDEADYYCQSYDISLSGSLFGGGTKLTVL
In the case of B1, the fold inhibition of CD248-IGFBP5 binding over the negative control antibody (Palivizumab) was greater than 10 fold.
